We go through 8 substances from publication PMC8528861, “Structural and functional analysis of target recognition by the lymphocyte adaptor protein LNK” (Nature Communications, 2021).

Experiment [1] addresses M. musculus LNK SH2 domain (residues 324–446), wild type (mouse) (UniProt O09039). Description: SPR; competition: biotinylated IL6ST pY757 peptide immobilised on a streptavidin chip; 0.1–0.5 μM WT LNK SH2 domain pre-incubated with phosphopeptide and flowed over; 10 mM HEPES pH 7.4, 150 mM NaCl, 3.4 mM EDTA, 0.005% Tween 20; response normalised to LNK only, IC50 fit.
The target of experiment [2] is biotinylated JAK2 pY813 peptide. Description: SPR; direct binding: biotinylated JAK2 pY813 immobilised on a streptavidin chip; LNK and SH2B SH2 domains flowed over for 420 s at 30 μL/min; 10 mM HEPES pH 7.4, 150 mM NaCl, 3.4 mM EDA, 0.005% Tween 20. A general note: SPR reads the build-up and loss of mass on a sensor chip optically.

The IC50 is the concentration that inhibits the measured activity by half. Read a low IC50 as greater potency in that assay. What is called Kd is a measure of binding affinity in units of concentration. Lower therefore signals a tighter complex.

M. musculus LNK SH2 domain (residues 324–446), wild type (mouse), sequence (O09039 324-446): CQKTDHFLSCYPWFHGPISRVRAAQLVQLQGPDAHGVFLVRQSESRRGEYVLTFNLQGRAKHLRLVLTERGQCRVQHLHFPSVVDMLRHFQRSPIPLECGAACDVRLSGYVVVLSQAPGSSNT

In the case of JAK2 pY813 peptide mutant +1A, the IC50 in experiment [1] was found to be 430 nM.

In the case of JAK2 pY813 peptide mutant +3F, the 50% inhibitory concentration (IC50) in experiment [1] turned out to be 1430 nM. This IC50 is about 3.3-fold higher than that of the substance before. In experiment [1], JAK2 pY813 peptide mutant +4A had a concentration for half-maximal inhibition (IC50) of 90 nM. In experiment [1], JAK2 pY813 peptide mutant +5A yielded an IC50 of 300 nM. For the substance JAK2 pY813 peptide mutant −1A, the half-inhibitory concentration (IC50) in experiment [1] was determined as 150 nM.

Substance “M. musculus LNK SH2 domain R387C (from UniProt O09039 325-438) (domain or fragment)” came in with a fold loss in affinity relative to the WT SH2 domain in experiment [2] of 3 fold. Take “M. musculus LNK SH2 domain R387H (from UniProt O09039 325-438) (domain or fragment)”: in experiment [2], the fold loss in affinity relative to the WT SH2 domain was 10 fold. In turn, “mouse SH2B SH2 domain (from UniProt Q91ZM2 527-625) (domain or fragment)” displayed a dissociation constant (Kd) in experiment [2] of 100 nM.
